The source of these data is publication PMC5732302.

The target of this assay is taxol-stabilized microtubules (control, undigested, with E-hooks) (porcine) (UniProt P02550).
Chain of taxol-stabilized microtubules (control, undigested, with E-hooks) (porcine) (P02550 whole entry, chain 1 of 2): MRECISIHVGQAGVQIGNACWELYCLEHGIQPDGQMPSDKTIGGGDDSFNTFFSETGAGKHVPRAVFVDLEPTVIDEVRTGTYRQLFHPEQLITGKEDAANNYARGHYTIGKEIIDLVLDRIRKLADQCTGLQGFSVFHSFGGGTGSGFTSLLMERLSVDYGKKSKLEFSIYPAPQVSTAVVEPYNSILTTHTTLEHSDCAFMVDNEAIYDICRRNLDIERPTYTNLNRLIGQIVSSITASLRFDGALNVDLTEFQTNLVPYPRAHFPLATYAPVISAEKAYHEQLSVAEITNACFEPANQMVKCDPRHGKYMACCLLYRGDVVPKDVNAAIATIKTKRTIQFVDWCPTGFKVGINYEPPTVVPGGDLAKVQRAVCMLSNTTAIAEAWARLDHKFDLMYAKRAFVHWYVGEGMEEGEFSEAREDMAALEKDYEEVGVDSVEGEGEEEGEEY
Chain of taxol-stabilized microtubules (control, undigested, with E-hooks) (porcine) (chain, as listed by the source, chain 2 of 2): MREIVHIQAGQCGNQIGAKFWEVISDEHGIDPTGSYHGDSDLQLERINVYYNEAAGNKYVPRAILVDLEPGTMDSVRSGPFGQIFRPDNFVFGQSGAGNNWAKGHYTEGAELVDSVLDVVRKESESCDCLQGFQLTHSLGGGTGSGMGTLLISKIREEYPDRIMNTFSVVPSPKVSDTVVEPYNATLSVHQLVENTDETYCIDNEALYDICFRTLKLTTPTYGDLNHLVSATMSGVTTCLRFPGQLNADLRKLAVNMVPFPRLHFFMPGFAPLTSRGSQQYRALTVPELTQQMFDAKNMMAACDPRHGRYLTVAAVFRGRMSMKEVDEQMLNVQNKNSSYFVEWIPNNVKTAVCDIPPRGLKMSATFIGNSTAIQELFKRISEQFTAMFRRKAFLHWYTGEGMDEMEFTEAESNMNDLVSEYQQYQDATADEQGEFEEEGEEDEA

On to “GST–dynein331, artificially dimerized (via glutathione S-transferase) dynein motor domain fragment, P36022 1-4092”, for which the K m(MT) of the microtubule-stimulated ATPase activity of GST–dynein331 (0–2 µM microtubules), with 200 nM She1 is 0.04 µM and the K m(MT) of the microtubule-stimulated ATPase activity of GST–dynein331 (0–2 µM microtubules), without She1 worked out at 0.1 µM.
